Data from US5200320A, “Method for identifying useful polypeptide vaccines” (National Jewish Center for Immunology and Respiratory …, priority 1987, dated 1993).
pIC50: −log10 of the molar value. Ends that are not written are not given here.

Key:
IA^d [1] = biological target: T1, IA^d (Mus musculus, UniProt P01921+P04228); conditions: amount of unlabelled Ova 323-339 divided by amount of truncated peptide needed to inhibit binding of 125I Ova 323-339 to IA^d by 50%; averages of 2-4 experiments; cited from earlier work
T1 sequence (P04228 24-256): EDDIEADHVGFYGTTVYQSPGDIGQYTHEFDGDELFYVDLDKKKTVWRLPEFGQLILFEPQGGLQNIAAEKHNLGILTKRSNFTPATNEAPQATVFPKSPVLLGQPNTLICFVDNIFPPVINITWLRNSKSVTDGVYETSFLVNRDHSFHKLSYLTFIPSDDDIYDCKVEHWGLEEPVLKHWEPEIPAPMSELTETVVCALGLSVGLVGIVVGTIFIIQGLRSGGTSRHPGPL
T1 sequence (P01921 28-265): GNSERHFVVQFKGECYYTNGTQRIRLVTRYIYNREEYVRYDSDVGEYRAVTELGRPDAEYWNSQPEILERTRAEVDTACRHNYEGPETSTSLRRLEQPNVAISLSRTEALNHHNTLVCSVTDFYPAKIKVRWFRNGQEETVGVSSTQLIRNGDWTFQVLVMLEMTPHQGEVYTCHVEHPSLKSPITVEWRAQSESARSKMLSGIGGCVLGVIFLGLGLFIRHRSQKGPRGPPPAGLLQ

IA^d [2] = biological target: T1, IA^d; assay: Inhibition of binding of 125I-radiolabelled Ova 323-339 to purified IA^d (gel filtration competition assay); conditions: Table 7, good binders; concentration of the indicated polypeptide
Text: The following examples will illustrate the method of the present invention. First, a critical binding segment of a first polypeptide that binds to a first type of MHC, was ascertained. […] This was accomplished by the method described in Sette, et al, Nature, Vol. […] No. 6129, pp. 395-399, Jul. 30, 1987, the entirety of which is incorporated herein by reference. […] For convenience, Table I of that paper illustrating the foregoing procedure, is attached as Table 2.
The effect which the substitutions indicated by an "X" in Table III, had on the binding strength of the critical binding segment listed at the top of attached Table 4, was quantitatively calculated, and a numerical designation assigned to the substituting amino acid based upon the degree of that effect. The foregoing assigned numerical designations for each "X" position indicated in Table 3, is listed at corresponding positions in Table 4. The quantitative evaluations of the binding strength were made using a competition assay as described in Sette, et al, supra, and the numerals assigned according to the decrease in the binding activity as follows:
The value of "binding" listed in Tables 6 and 7, is in micromolar concentration of the indicated polypeptide. The assay used was the same as that in Sette et al, supra, for quatitative estimation of Ia peptide interaction.
In particular, as pointed out in Sette et al., supra, T-cell recognition is much less permissive than MHC recognition. […] However, as one would expect, when the binding strength of a polypeptide to an MHC types of an individual animal is poor, little or no immunogenic response would result. However, if a polypeptide is a good binder, as ascertained by the above method, then immunogenicity would be expected to be a possibility. […] Binding to a class II MHC type IA^d and IE^d (d strain of mouse) was evaluated using the same assay technique as used to evaluate the binding for the polypeptides in Tables 6 and 7 above.

| Substance | Relative I-A^d binding capacity (IA^d [1]) | also measured |
| --- | --- | --- |
| Ova peptide 328-339: N-terminal truncation of Ova 323-339, starting with H (VHAAHAEINEAG; UniProt P01012 328-339, looked up, fragment) | 0.014 |  |
| FISEAIIHVLHSR [Myo 106-118] |  | pIC50 (IA^d [2]): 4.70 |
| Ova peptide 323-331: C-terminal truncation of Ova 323-339, ending in H (KISQAVHAA; UniProt P01012 323-331, looked up, fragment) | < 0.005 |  |
| AHRVQLGPRSLQVLLIP [JF 39] |  | pIC50 (IA^d [2]): 4.60 |
| Ova peptide 323-335: C-terminal truncation of Ova 323-339, ending in N (KISQAVHAAHAEI; UniProt P01012 323-335, looked up, fragment) | 1.0 |  |
| Ova peptide 326-339: N-terminal truncation of Ova 323-339, starting with A (QAVHAAHAEINEAG; UniProt P01012 326-339, looked up, fragment) | 0.5 |  |
| SAESLKISQAV [Ova Site II] |  | pIC50 (IA^d [2]): 5.30 |
| HNTNGVTAACSHE [Ha 130-142] |  | pIC50 (IA^d [2]): 5.05 |
| Ova peptide 323-333: C-terminal truncation of Ova 323-339, ending in E (KISQAVHAAHA; UniProt P01012 323-333, looked up, fragment) | 0.6 |  |
| Ova peptide 327-339: N-terminal truncation of Ova 323-339, starting with V (AVHAAHAEINEAG; UniProt P01012 327-339, looked up, fragment) | 0.3 |  |
| Ova peptide 325-339: N-terminal truncation of Ova 323-339, starting with Q (SQAVHAAHAEINEAG; UniProt P01012 325-339, looked up, fragment) | 1.1 |  |
| Ova peptide 323-332: C-terminal truncation of Ova 323-339, ending in A (KISQAVHAAH; UniProt P01012 323-332, looked up, fragment) | 0.2 |  |
| Ova peptide 329-339: N-terminal truncation of Ova 323-339, starting with A (HAAHAEINEAG; UniProt P01012 329-339, looked up, fragment) | < 0.005 |  |
| APYTSTLLAPELSETP [HSVD 245-260] |  | BINDING (M) (IA^d [2]): 22/2 |
| Ova peptide 323-336: C-terminal truncation of Ova 323-339, ending in E (KISQAVHAAHAEIN; UniProt P01012 323-336, looked up, fragment) | 1.1 |  |
